Data on eight molecules can be found in patent US20230416942A1 (YALE UNIVERSITY, published 2023).

Assay [1] addresses T1, IL17A (human, UniProt Q16552 24-155).
T1 construct: Recombinant human protein in ELISA and BLI
T1 sequence (looked up): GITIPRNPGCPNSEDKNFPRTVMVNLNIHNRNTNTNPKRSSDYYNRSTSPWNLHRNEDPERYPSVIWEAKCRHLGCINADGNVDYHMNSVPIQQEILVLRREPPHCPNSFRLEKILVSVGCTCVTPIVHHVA
Description: ELISA, plate-coated recombinant human protein, nanobody-Fc. As to the method: (§1) Recombinant human protein was diluted in PBS to a final concentration of 5 μg/mL and was immobilized on 96-well flat bottom MaxiSorp plates (Thermo Fisher Scientific) and placed at 4° C. overnight. Plates were washed three times with 225 μL ELISA wash buffer (PBS with 0.05% Tween 20) and 200 μL ELISA blocking buffer (PBS with 1% Casein) was added to the well. Plates were incubated with shaking for 2 hours at room temperature. ELISA blocking buffer was removed from the wells and appropriate dilutions of recombinant nanobodies in 100 μL ELISA blocking buffer was added to each well. Plates were incubated with shaking for 2 hours at room temperature. Plates were washed 3 times with 225 μL ELISA wash buffer and 1:5000 goat anti-human IgG HRP (Millipore Sigma) in 100 μL ELISA blocking buffer was added to the wells. Plates were incubated with shaking for 1 hour at room temperature. Plates were washed 6 times with 225 μL ELISA wash buffer. 50 μL TMB substrate (BD Biosciences) was added to the wells and plates were incubated for 15 minutes in the dark at room temperature. 50 μL 1 M sulfuric acid was added to the wells and absorbance at 450 nm was measured in a Synergy HTX Multi-Mode Microplate Reader (BioTek).

Assay [2] concerns the target T1, IL17A. Briefly: BLI, AHC sensor, nanobody-Fc captured, antigen in solution. The text has this:
(§2) Octet RED96 System (ForteBio) was used to perform kinetic measurement of nanobody binding to antigens. For Anti-Penta-His Biosensors (HIS1K), his-tagged recombinant human proteins were first immobilized onto the biosensors, and recombinant nanobodies fused with human IgG1 were applied to detect binding. For Anti-Human IgG Fc Capture Biosensors (AHC), recombinant nanobodies fused with human IgG1 were first loaded onto the biosensors, and probes were dipped in serial dilutions of recombinant human antigens.

Assay [3] concerns the target T2, PROCR (human, UniProt Q9UNN8 18-210).
T2 construct: Recombinant human protein in ELISA and BLI
T2 sequence (looked up): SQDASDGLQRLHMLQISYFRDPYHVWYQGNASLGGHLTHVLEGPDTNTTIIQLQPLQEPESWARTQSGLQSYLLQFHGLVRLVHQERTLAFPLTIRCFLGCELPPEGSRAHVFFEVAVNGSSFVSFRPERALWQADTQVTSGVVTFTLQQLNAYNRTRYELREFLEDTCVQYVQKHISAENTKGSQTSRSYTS
Briefly: ELISA, plate-coated recombinant human protein, nanobody-Fc. The method, then:
as §1

In assay [4] the target is T2, PROCR. Description: BLI, AHC sensor, nanobody-Fc captured, antigen in solution.
Source text: as §2
Background: BLI is a label-free optical method that tracks binding on a fibre tip over time.

Assay [5] concerns the target T3, IL1RN (human, UniProt P18510 26-177).
T3 construct: Recombinant human protein in ELISA and BLI
Description: ELISA, plate-coated recombinant human protein, nanobody-Fc. The method, then:
as §1
Background: An ELISA detects its analyte on a solid surface through an enzyme-linked reagent.

In assay [6] the target is T4, IL10RA (human, UniProt Q13651 22-235).
T4 construct: Recombinant human protein in ELISA
T4 sequence (looked up): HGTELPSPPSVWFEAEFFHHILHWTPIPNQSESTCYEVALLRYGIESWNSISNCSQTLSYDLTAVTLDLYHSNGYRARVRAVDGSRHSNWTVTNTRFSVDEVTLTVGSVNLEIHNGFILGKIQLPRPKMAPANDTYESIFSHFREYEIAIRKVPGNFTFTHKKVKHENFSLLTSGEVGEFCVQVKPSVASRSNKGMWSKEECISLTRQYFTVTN
The assay is described as above. As to the method:
as §1

Assay [7] concerns the target T5, LAIR2 (human, UniProt Q6ISS4 22-152).
T5 construct: Recombinant human protein in ELISA
T5 sequence (looked up): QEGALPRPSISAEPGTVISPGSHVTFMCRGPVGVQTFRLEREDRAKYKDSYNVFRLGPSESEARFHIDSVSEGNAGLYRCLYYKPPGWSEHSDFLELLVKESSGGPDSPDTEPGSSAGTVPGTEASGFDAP
The assay is described as above. As to the method: as §1

Assay [8] has as its target T3, IL1RN. Briefly: BLI, AHC sensor, nanobody-Fc captured, antigen in solution.
Source text: as §2

The target of assay [9] is T6, CCL16 (human, UniProt O15467 24-120).
T6 construct: Recombinant human protein in ELISA and BLI
T6 sequence (looked up): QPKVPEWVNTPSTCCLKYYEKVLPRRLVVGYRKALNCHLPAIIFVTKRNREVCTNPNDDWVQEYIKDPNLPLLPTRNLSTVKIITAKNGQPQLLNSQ
Briefly: ELISA, plate-coated recombinant human protein, nanobody-Fc. As to the method: as §1

Assay [10] has as its target T6, CCL16. Description: BLI, AHC sensor, nanobody-Fc captured, antigen in solution.
Source text: as §2

T3 sequence (P18510 26-177 limits assumed): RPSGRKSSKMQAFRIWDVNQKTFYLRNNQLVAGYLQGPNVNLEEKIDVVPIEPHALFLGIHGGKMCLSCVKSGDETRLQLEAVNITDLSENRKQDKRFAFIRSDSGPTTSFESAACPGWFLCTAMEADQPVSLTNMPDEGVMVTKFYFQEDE

B1: IL17A_Nb2.92 (Fc fusion)
chain: QVQLQESGGGLVQAGGSLRLSCAASGTISQGDYMGWYRQAPGKEREFVASIAIGTITYYADSVKGRFTISRDNAKNTVYLQMNSLKPEDTAVYYCAVSVQFSYDFYYWGQGTQVTVSS
notes: Nanobody expressed and tested as Fc fusion (human IgG1); not shown: human IgG1 Fc (vector pCER243)
As for B1, the EC50 (in general, the concentration needed to bring the measured effect to its halfway point) in assay [1] was 0.179 nM. Also, in assay [2], the Kd – broadly, the equilibrium constant for the complex coming apart – came to 0.656 nM.

B2: PROCR_Nb88 (Fc fusion)
chain: QVQLQESGGGLVQAGGSLRLSCAASGTIFKLGYMGWYRQAPGKEREFVATITTGATTYYADSVKGRFTISRDNAKNTVYLQMNSLKPEDTAVYYCAADTYGPWAYSYWGQGTQVTVSS
notes: as for B1
Take B2: in [3], the EC50 is 0.287 nM. This molecule also came in with a Kd in [4] of 62.9 nM.

B3: PROCR_Nb87 (Fc fusion)
chain: QVQLQESGGGLVQAGGSLRLSCAASGSISSYPYMGWYRQAPGKERELVASIASGTNTYYADSVKGRFTISRDNAKNTVYLQMNSLKPEDTAVYYCAADSTGPWSHVYWGQGTQVTVSS
notes: as for B1
Regarding B3, in [3], the concentration for a half-maximal effect (EC50) is 0.0104 nM. In assay [4], this molecule displayed a Kd of 92.1 nM.

B4: IL1RN_Nb75 (Fc fusion)
chain: QVQLQESGGGLVQAGGSLRLSCAASGNIFRYDNMGWYRQAPGKEREFVATITYGSNTYYADSVKGRFTISRDNAKNTVYLQMNSLKPEDTAVYYCAAYFPYRSYDNSADTSSHSYWGQGTQVTVSS
notes: as for B1
Consider B4, for which the EC50 in assay [5] came out at 6.9 nM.

B5: IL10RA_Nb72 (Fc fusion)
chain: QVQLQESGGGLVQAGGSLRLSCAASGTISSEHAMGWYRQAPGKERELVAGITYGSITNYADSVKGRFTISRDNAKNTVYLQMNSLKPEDTAVYYCAVYYYYRATIYHALGYWGQGTQVTVSS
notes: as for B1
As for B5, the EC50 in [6] turned out to be 16.9 nM.

B6: LAIR2_Nb2.51 (Fc fusion)
chain: QVQLQESGGGLVQAGGSLRLSCAASGSIFYPSAMGWYRQAPGKERELVASIGQGGSTYYADSVKGRFTISRDNAKNTVYLQMNSLKPEDTAVYYCAVQPYSANLHRYWGQGTQVTVSS
notes: as for B1
For B6, the EC50 in assay [7] was found to be 0.379 nM.

B7: IL1RN_Nb77 (Fc fusion)
chain: QVQLQESGGGLVQAGGSLRLSCAASGTIFTWLVMGWYRQAPGKERELVASIDPGTNTYYADSVKGRFTISRDNAKNTVYLQMNSLKPEDTAVYYCAARYVAGYTVGAYHYYWGQGTQVTVSS
notes: as for B1
Turning to B7, the EC50 in [5] was 0.168 nM. The molecule also came in with a Kd in [8] of 852 nM.

B8: CCL16_Nb2.1 (Fc fusion)
chain: QVQLQESGGGLVQAGGSLRLSCAASGYISSYWDMGWYRQAPGKERELVAAIAPGTITYYADSVKGRFTISRDNAKNTVYLQMNSLKPEDTAVYYCAASEFDNEAHDYWGQGTQVTVSS
notes: as for B1
In the case of B8, the EC50 in assay [9] was determined as 0.882 nM. In addition, binding in assay [10] was put at a Kd of 17.4 nM.
